According to patent US10179909B2, “Non-natural amino acid tRNA synthetases for pyridyl tetrazine” (priority 2013, dated 2019):
Where a chain is given by its changes, count along the chain named. Names may count otherwise.

B1: Clone 2A2: M. jannaschii TyrRS variant for Formula I: Y32L, L65V, H70A, F108W, Q109S, D158V, I159A, L162V (protein, listed as Methanococcus jannaschii)
chain: MDEFEMIKRNTSEIISEEELREVLKKDEKSALIGFEPSGKIHLGHYLQIKKMIDLQNAGFDIIIVLADLAAYLNQKGELDEIRKIGDYNKKVFEAMGLKAKYVYGSEWSLDKDYTLNVYRLALKTTLKRARRSMELIAREDENPKVAEVIYPIMQVNVAHYVGVDVAVGGMEQRKIHMLARELLPKKVVCIHNPVLTGLDGEGKMSSSKGNFIAVDDSPEEIRAKIKKAYCPAGVVEGNPIMEIAKYFLEYPLTIKRPEKFGGDLTVNSYEELESLFKNKELHPMDLKNAVAEELIKILEPIRKRL
modifications: wild-type (WT) tyrosyl tRNA synthetase (TyrRS), reference sequence
notes: M. jannaschii TyrRS variant for Formula I: Y32L, L65V, H70A, F108W, Q109S, D158V, I159A, L162V
B2: Clone 2A9: M. jannaschii TyrRS variant for Formula II: Y32G, L65V, H70A, Q109S, D158G, L162S (protein, listed as Methanococcus jannaschii)
chain: B1 chain with L32G, W108F, V158G, A159I, V162S
modifications: wild-type (WT) tyrosyl tRNA synthetase (TyrRS), reference sequence
notes: M. jannaschii TyrRS variant for Formula II: Y32G, L65V, H70A, Q109S, D158G, L162S

System: GFP (K49TAG) amber (TAG) codon / orthogonal CUA-encoding suppressor tRNA
Test: CFPS based GFP K49TAG amber suppression assay
Type: biochemical, E. coli
Settings: for full-length GFP expression by suppression of the TAG codon: clone titrated into CFPS reactions in the absence or presence of 4 μM non-natural amino acid; for amber suppression efficiency (levels of GFP detected): in the presence of the pyridyl-amino tetrazine compound (Formula I for 2A2, Formula II for 2A9), cell-free protein synthesis, 30° C., 12 h; for amber suppression (levels of GFP detected) without non-natural amino acid: reactions lacking the non-natural amino acid and containing the common naturally occurring amino acids
Protocol: The RS variants described herein were used to incorporate the compound of Formula I or the compound Formula II into the reporter protein Superfolder GFP. GFP containing a TAG stop codon at position 49 (GFP (K49TAG)) was expressed in a cell-free protein synthesis reaction as described in Zawada et al., 2011, Biotechnol. Bioeng., 108(7)1570-1578 with the following modifications. The cell free extracts were prepared from an OmpT sensitive RF-1 attenuated strain that was also engineered to overexpress E. coli DsbC, and a similar RF-1 attenuated E. coli strain that was engineered to produce an orthogonal CUA-encoding tRNA for insertion of a non-natural amino acid at an amber stop codon. The cell free extracts were blended (at a ratio of 85:15), and then added to a premix containing all other components of a cell-free protein synthesis system except for DNA encoding GFP (K49TAG). The final concentration in the cell-free protein synthesis reaction was 30% cell extract, with or without 2 mM non-natural amino acid (either Formula I or Formula II), 4 μM, 2 μM, 1 μM or no nnAA-specific RS variant (e.g., variant clone 1A7, 2A2, 1B7, 1B8, 2A1, 2B7, 2B5, 2A5, 2B4, 2B3, or 2A9), 8 mM magnesium glutamate, 10 mM ammonium glutamate, 130 mM potassium glutamate, 35 mM sodium pyruvate, 1.2 mM AMP, 0.86 mM each of GMP, UMP, and CMP, 2 mM amino acids (except 0.5 mM for tyrosine and phenylalanine), 4 mM sodium oxalate, 1 mM putrescine, 1.5 mM spermidine, 15 mM potassium phosphate, 100 nM T7 RNAP, 10 μg/mL GFP (K49TAG) expression template plasmid. The cell-free synthesis reactions were initiated by the addition of the plasmid DNA encoding GFP (K49TAG). The reactions were incubated at 30° C. for 12 h on a shaker at 650 rpm. After 12 hours of expression at the end point GFP fluorescence signal was measured at excitation at 476 nm, emission at 510 nm on a SpectraMax M5 fluorescence plate reader.
Similarly, clone 2A9, specific for Formula II, was titrated into the GFP-based amber supression CFPS reactions in the absence or presence of 4 μM Formula II.

Molecule | GFP levels relative to the positive GFP control reaction (reaction containing the non-natural amino acid and its specific RS clone (2A2 for Formula I, 2A9 for Formula II), control GFP has no premature stop codon) | full-length GFP expression by suppression of the TAG codon | amber suppression efficiency (levels of GFP detected) | amber suppression (levels of GFP detected) without non-natural amino acid
Cc1nnc(NCc2ccc(C[C@H](N)C(=O)O)nc2)nn1 [Formula I, (S)-2-amino-3-(5-((6-methyl-1,2,4,5-tetrazin-3-ylamino)methyl)pyridin-2-yl)propanoic acid] | comparable | – | – | –
B1 | – | expressed only in the presence of the compound of Formula I | high amber suppression efficiencies | substantially no amber supression
B2 | – | expressed only in the presence of the compound of Formula II | high amber suppression efficiencies | substantially no amber supression
